Measured values from the supplement of paper PMC9112550, “Optimization of the antimicrobial peptide Bac7 by deep mutational scanning” (BMC Biology, 2022).

Test system: Escherichia coli TOP10
Assay: shrunken log2 fold change of peptide-encoding DNA abundance (4.5 h post-induction vs induction); higher = less antimicrobial activity (less host growth inhibition)
Conditions: time post-induction: 4.5 h; library: site-saturation at positions 5, 18, 19, 20
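Note: peptides expressed intracellularly from a pBAD plasmid library in pooled LB shake-flask culture, induced with 0.3% L-arabinose, DNA abundance read by NGS, three biological replicates, DESeq2 with apeglm shrinkage.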

| Sequence | shrunken log2 fold change |
| --- | --- |
| RRIRTRPPRLPRPRPRPPWPPRP | 0.356 |
| RRIRFRPPRLPRPRPRPTPAPRP | 0.951 |
| RRIRARPPRLPRPRPRPRWNPRP | 0.00795 |
| RRIRRRPPRLPRPRPRPNRAPRP | 3.1 |
| RRIRDRPPRLPRPRPRPGMHPRP | 0.0286 |
| RRIRQRPPRLPRPRPRPSAKPRP | 0.104 |
| RRIRLRPPRLPRPRPRPCLQPRP | -0.207 |
| RRIRIRPPRLPRPRPRPLWCPRP | -0.067 |
| RRIRIRPPRLPRPRPRPCPTPRP | -0.0511 |
| RRIRLRPPRLPRPRPRPTGYPRP | -0.206 |
| RRIRHRPPRLPRPRPRPILPPRP | 0.0147 |
| RRIRIRPPRLPRPRPRPEPDPRP | -0.00501 |
| RRIRARPPRLPRPRPRPKIHPRP | -0.0619 |
| RRIRLRPPRLPRPRPRPEYEPRP | 0.0712 |
| RRIRDRPPRLPRPRPRPQPFPRP | -0.0264 |
| RRIRDRPPRLPRPRPRPYDIPRP | -0.00136 |
| RRIRYRPPRLPRPRPRPHLEPRP | -0.021 |
| RRIRVRPPRLPRPRPRPQWRPRP | -0.0106 |
| RRIRHRPPRLPRPRPRPTQYPRP | 0.124 |
| RRIRTRPPRLPRPRPRPKFIPRP | -0.175 |
| RRIRERPPRLPRPRPRPDWIPRP | -0.126 |
| RRIRSRPPRLPRPRPRPRMDPRP | -0.291 |
| RRIRNRPPRLPRPRPRPYDTPRP | -0.22 |
| RRIRWRPPRLPRPRPRPGNLPRP | -0.00261 |
| RRIRSRPPRLPRPRPRPCFAPRP | 0.598 |

| Sequence | shrunken log2 fold change |
| --- | --- |
| RRIRCRPPRLPRPRPRPPCTPRP | -0.0939 |
| RRIRDRPPRLPRPRPRPFMKPRP | -0.0698 |
| RRIRRRPPRLPRPRPRPESLPRP | 0.0493 |
| RRIRDRPPRLPRPRPRPNLCPRP | 0.0227 |
| RRIRWRPPRLPRPRPRPWIWPRP | 0.0705 |
| RRIRDRPPRLPRPRPRPIQTPRP | 0.00408 |
| RRIRFRPPRLPRPRPRPMRIPRP | 0.068 |
| RRIRFRPPRLPRPRPRPFMAPRP | -0.417 |
| RRIRMRPPRLPRPRPRPHALPRP | -0.541 |
| RRIRIRPPRLPRPRPRPNSMPRP | -1.23 |
| RRIRDRPPRLPRPRPRPWFIPRP | -0.157 |
| RRIRERPPRLPRPRPRPQIIPRP | -1.12 |
| RRIRIRPPRLPRPRPRPQRTPRP | 0.0834 |
| RRIRARPPRLPRPRPRPLWKPRP | 0.121 |
| RRIRWRPPRLPRPRPRPSCGPRP | 0.0847 |
| RRIRHRPPRLPRPRPRPGTAPRP | -0.275 |
| RRIRFRPPRLPRPRPRPDLGPRP | 0.106 |
| RRIRVRPPRLPRPRPRPVWIPRP | -0.206 |
| RRIRVRPPRLPRPRPRPMQMPRP | -0.0841 |
| RRIRKRPPRLPRPRPRPWELPRP | 0.221 |
| RRIRCRPPRLPRPRPRPFMCPRP | -0.0735 |
| RRIRRRPPRLPRPRPRPMRFPRP | 1.1 |
| RRIRDRPPRLPRPRPRPWNRPRP | -0.339 |
| RRIRSRPPRLPRPRPRPHAIPRP | -0.144 |
| RRIRDRPPRLPRPRPRPHSTPRP | -0.0545 |
